The source of these data is patent US20200297842A1 (published 2020).

Residue numbers refer to the chain shown, from its start.

In assay [1] the target is T1, Fc tagged human SIRPα (ACRO # SIG-H5251, genotype variant 1) (human, UniProt P78324 31-370, limits assumed).
T1 construct: Bought protein; also called Fc tagged human SIRP alpha; recombinant human SIRPα; not shown: Fc tag
Put plainly: ELISA, plate-coated Fc tagged human SIRPα; apparent Kd. How it is done:
The binding of anti-SIRP monoclonal antibodies (mAbs) of the present disclosure to SIRP alpha (SIRPα) was determined by solid phase ELISA using an Fc tagged human SIRP alpha. Binding by soluble anti-SIRP antibodies was measured in vitro.
Fc tagged human SIRPα (ACRO # SIG-H5251, genotype variant 1) is adsorbed to high-binding microtiter plates at a concentration of 1 μg/ml diluted in phosphate buffered saline (PBS) overnight at 4° C. The coating solution is removed, the wells are washed and then blocked with 75% casein in PBS containing 0.5% Tween 20 (PBST) for 60 minutes at room temperature while shaking. Blocking solution is removed, the wells are washed and incubated for 60 minutes at room temperature while shaking with either murine or human anti-SIRP mAbs diluted in PBST at a starting concentration of 30 μg/ml and reducing the concentration in 3-fold serial dilutions. Wells are washed three times with PBST and incubated for 60 minutes at room temperature while shaking with an HRP-labeled donkey anti-mouse or anti-human secondary antibody (Jackson ImmunoResearch Laboratories) diluted 1:10,000 in PBST. The wells are washed and then incubated with peroxidase substrate and the absorbance at 450 nm measured. The apparent affinities were calculated using a non-linear fit model (GraphPad Prism).
A general note: ELISA stands for enzyme-linked immunosorbent assay.

Assay [2] concerns the target T2, Fc tagged human SIRPγ (ACRO # SIG-H5253) (human, UniProt Q9P1W8 29-360).
T2 construct: Bought protein; it includes the transmembrane and cytoplasmic part, which a soluble Fc fusion would not carry; also called Fc tagged human SIRP gamma; recombinant human SIRP gamma; not shown: Fc tag
Description: ELISA, plate-coated Fc tagged human SIRPγ; apparent Kd. How it is done: The binding of anti-SIRP antibodies of the present disclosure to SIRP gamma (SIRPγ) was determined by ELISA using an Fc tagged human SIRPγ. Binding by soluble anti-SIRP antibodies was measured in vitro.
(§1) Fc tagged human SIRPγ (ACRO # SIG-H5253) is adsorbed to high-binding microtiter plates at a concentration of 1 μg/ml in phosphate buffered saline (PBS) overnight at 4° C. The coating solution is removed, the wells are washed and then blocked with 75% casein in PBS containing 0.5% Tween 20 (PBST) for 60 minutes at room temperature while shaking. Blocking solution is removed, the wells are washed and incubated for 60 minutes at room temperature while shaking with anti-SIRP mAbs diluted in PBST at a starting concentration of 30 μg/ml and reducing the concentration in 3-fold serial dilutions. Wells are washed three times with PBST and incubated for 60 minutes at room temperature while shaking with an HRP labeled donkey anti-mouse or anti-human secondary antibody (Jackson ImmonResearch Laboratories) diluted 1:10,000 in PBST. The wells are washed and then incubated with peroxidase substrate and the absorbance at 450 nm determined. The apparent affinities were calculated using a non-linear fit model (GraphPad Prism).

Assay [3] addresses T2, Fc tagged human SIRPγ (ACRO # SIG-H5253). Put plainly: blocking ELISA: mAb with human SIRPγ (ACRO # SIG-H5253) on plate-coated HIS tagged human CD47. The procedure:
HIS tagged human CD47 (ACRO # CD7-H5227) is adsorbed to high-binding microtiter plates at a concentration of 2 μg/ml diluted in PBS overnight at 4° C. The coating solution is removed, the wells are washed and then blocked with 75% casein in PBS containing 0.5% Tween 20 (PBST) for 60 minutes at room temperature while shaking. Blocking solution is removed, the wells are washed and incubated for 60 minutes at room temperature while shaking with anti-SIRP mAbs diluted in PBST at a starting concentration of 30 μg/ml and reducing the concentration in 3 fold serial dilutions and 0.5 μg/ml of human SIRPγ (ACRO # SIG-H5253). Wells are washed three times with PBST and incubated for 60 minutes at room temperature while shaking with an HRP labeled donkey anti-mouse or anti-human secondary antibody (Jackson ImmunoResearch Laboratories) diluted 1:20,000 in PBST. The wells are washed and then incubated with peroxidase substrate and the absorbance at 450 nm determined. The IC₅₀ was calculated using a non-linear fit model (GraphPad Prism).

The target is the same in assay [4]. Put plainly: ELISA, plate-coated Fc tagged human SIRPγ. The procedure:
as §1

T2 sequence (Q9P1W8 29-360 limits assumed): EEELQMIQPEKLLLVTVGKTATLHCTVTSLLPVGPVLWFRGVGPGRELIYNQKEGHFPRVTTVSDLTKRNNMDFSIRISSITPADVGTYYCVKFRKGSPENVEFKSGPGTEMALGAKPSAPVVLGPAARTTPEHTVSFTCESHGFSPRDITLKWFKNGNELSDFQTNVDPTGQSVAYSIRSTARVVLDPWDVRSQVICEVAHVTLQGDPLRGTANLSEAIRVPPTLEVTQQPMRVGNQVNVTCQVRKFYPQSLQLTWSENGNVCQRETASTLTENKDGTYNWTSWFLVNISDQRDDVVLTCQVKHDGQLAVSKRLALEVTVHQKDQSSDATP
T1 sequence (P78324 31-370 limits assumed, change not shown, form in doubt): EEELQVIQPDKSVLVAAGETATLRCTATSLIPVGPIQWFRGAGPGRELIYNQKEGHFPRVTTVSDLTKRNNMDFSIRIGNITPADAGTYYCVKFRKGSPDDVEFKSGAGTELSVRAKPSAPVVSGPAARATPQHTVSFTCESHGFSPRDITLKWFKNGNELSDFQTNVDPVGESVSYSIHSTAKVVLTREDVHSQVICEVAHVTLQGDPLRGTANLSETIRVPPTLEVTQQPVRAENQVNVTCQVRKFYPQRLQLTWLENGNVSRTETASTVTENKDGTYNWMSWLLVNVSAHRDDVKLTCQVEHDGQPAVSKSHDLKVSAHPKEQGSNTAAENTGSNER

B1: SIRP6 (antibody, V domains shown)
VH: QIQLVQSGPELKKPGETVKISCKASGYTFTDYGVNWVKQGPGKDLQWMGWVNTNTRESTYVEDFKGRFAFSLETSASTAYLQINNLKNEDSSTYFCARGAYDAYYYYYGMDYWGQGTSVTVSS
VL: DIQMTQSPASLSASVGETVTITCRASENIYSYLTWYKQKQGKSPQLLVYNAKTLAEGVPSRFSGSGSGTQFSLKINSLQPEDFGSYYCQHHYGSPRTFGGGTKLEIK
With B1, the Kd worked out at 0.131 nM in assay [1] and 0.183 nM in assay [2]. In addition, the midpoint of inhibition in assay [3], the IC50, lay at 0.86 nM.

B2: SIRP11 (antibody, human IgG4 S228P, kappa, V domains shown)
VH: QVQLVQSGAEVKKPGASVKVSCKASGYSFTDYFLNWVRQAPGQGLEWMGRINPYNGDSFINQNFRDRVTMTRDTSTSTVYMELSSLRSEDTAVYYCARGGYDGYFIAYFDYWGAGTTVTVSS
VL: DIQMTQSPSSLSASVGDRVTITCKASQDINSHLSWYQQKPGKAPKLLIYRANRLATGVPSRFSGSGSGTDFTFTISSLQPEDIATYYCLQYDEFPYTFGGGTKLEIKR
notes: shares the heavy-chain CDRs of SIRP4
For B2, the Kd in assay [1] came out at 0.194 nM; in assay [2], 7.22 nM.

B3: SIRP17 (antibody, human IgG4 S228P, kappa, V domains shown)
VH: EVQLVQSGAEVKKPGESLKISCKGSGYSFTDYFLNWVRQMPGKGLEWMGRINPYNGDSFINQNFRDQVTISADKSISTAYLQWSSLKASDTAMYYCARGGYDGYFIAYFDYWGAGTTVTVSS
VL: B2 VL
Regarding B3, the Kd in assay [1] was 0.326 nM; in assay [2] it was more than 15 nM.

B4: SIRP19 (antibody, human IgG4 S228P, kappa, V domains shown)
VH: B3 VH
VL: B2 VL with L89Q
Consider B4, for which the binding result in assay [4] is listed as “no binding (tested: 30 µg/ml)”. In addition, the Kd in assay [1] is more than 19 nM.

B5: SIRP16 (antibody, human IgG4 S228P, kappa, V domains shown)
VH: B2 VH with A16S, M70I, R72A, T74K, V79A
VL: B2 VL with L89Q
Regarding B5, in assay [1], the Kd was more than 40 nM.

B6: SIRP18 (antibody, human IgG4 S228P, kappa, V domains shown)
VH: B3 VH
VL: B2 VL with Q79E, P80Y
On to B6, for which the Kd in assay [1] was 0.364 nM; in assay [2], more than 34 nM.

B7: SIRP22 (antibody, human IgG4 S228P, kappa, V domains shown)
VH: B2 VH with R72V
VL: B2 VL with L89Q
Consider B7, for which the binding result in assay [4] is recorded as “no binding (tested: 30 µg/ml)”. Also, the Kd in assay [1] is more than 11 nM.

B8: SIRP21 (antibody, human IgG4 S228P, kappa, V domains shown)
VH: B2 VH with R72V
VL: B2 VL with Q79E, P80Y
On to B8, for which the values for the Kd in assay [1] and in assay [2] were 0.274 nM and more than 21 nM, respectively.

B9: SIRP15 (antibody, human IgG4 S228P, kappa, V domains shown)
VH: B2 VH with A16S, M70I, R72A, T74K, V79A
VL: B2 VL with Q79E, P80Y
With B9, the Kd is 0.608 nM in assay [1] and more than 14 nM in assay [2].

B10: SIRP14 (antibody, human IgG4 S228P, kappa, V domains shown)
VH: B2 VH with A16S, M70I, R72A, T74K, V79A
VL: B2 VL
On to B10, for which, in assay [4], the binding result is listed as “no binding (tested: 30 µg/ml)”. In addition, the Kd in assay [1] is 0.565 nM.

B11: SIRP12 (antibody, human IgG4 S228P, kappa, V domains shown)
VH: B2 VH
VL: B2 VL with Q79E, P80Y
As to B11, the figures for the Kd in assay [1] and in assay [2] were 0.165 nM and more than 12 nM, respectively.

B12: SIRP13 (antibody, human IgG4 S228P, kappa, V domains shown)
VH: B2 VH
VL: B2 VL with L89Q
Take B12: the binding result in assay [4] is reported as “no binding (tested: 30 µg/ml)”. Further, the Kd in assay [1] turned out to be 1.56 nM.

B13: SIRP20 (antibody, human IgG4 S228P, kappa, V domains shown)
VH: B2 VH with R72V
VL: B2 VL
With B13, the Kd in assay [1] is 0.157 nM; in assay [2], more than 29 nM.

B14: SIRP23 (antibody, human IgG4 S228P, kappa, V domains shown)
VH: EVQLQQSGPDLVKPGASVKISCKASGYSFTDYFLNWVKQSHGKSLEWIGRINPYNGDSFINQNFRDKATLTVDKSSTTAHMDLLSLTSEDSAIYYCGRGGYDGYFIAYFDYWGQGSLVTVSA
VL: DIKMTQSPSSMYASLGQRVTITCKASQDINSHLSWFQEKPGKSPKTLIYRANRLADGVPSRFSGSGSGQDYFLTISSLEYEDVGIYYCLQYDEFPYTFGGGTKLEIKR
Turning to B14, the values for the Kd in assay [1] and in assay [2] were 0.164 nM and 0.225 nM, respectively.

B15: SIRP10 (antibody, V domains shown)
VH: EVQLQESGAELVRPGTSVKMSCKAAGYTFSNYLIGWIKQRPGHGLEWIGDIYPGDNNTNYNEKFRVKATLTADTSSNTAYMHLTSLTSEDSAIYYCAGGTDYDGFANWGQGTLVTVSA
VL: ENVLTQSPAIMSASLGEKVTMSCRASSSVNYMYWYQQKSDASPKLWIYYTSKLAPGVPARFSGSGSGNSYSLTISSMEGEDAATYYCQQFTSSPFTFGSGTKLEIK
B15: the Kd in assay [1] and in assay [2] was more than 10 nM throughout.

B16: SIRP8 (antibody, V domains shown)
VH: EVQLQESGGGLVKPGGSLKLSCAASGFTLSTYTMSWVRQTPEKRLEWVAIITSGDTYTYYPDSVKGRFTISRDNAKNTLYLQMSSLKSEDTGMYYCTRDRPLFHWGQGTTLTVST
VL: QIVLTQSPAIMSASPGEKVTMTCSASSSVSYMYWYQQKPGSSPRLLIYDTSNLASGVPVRFSGSGSGTSYSLTISRMEAEDAATYYCQQWSSFPWTFGGGTKLEIK
On to B16, for which, in assay [4], the binding result is “no binding (tested: 30 µg/ml)”. The Kd in assay [1] amounted to 0.057 nM.
